Series [1] addresses T1, Vps15, full-length (of the Vps15-Vps34 D731N dimer) (S. cerevisiae, UniProt P22219 1-1454).
T1 construct: Vps15, yeast (S. cerevisiae), full-length; also called ScVps15
T1 sequence (looked up): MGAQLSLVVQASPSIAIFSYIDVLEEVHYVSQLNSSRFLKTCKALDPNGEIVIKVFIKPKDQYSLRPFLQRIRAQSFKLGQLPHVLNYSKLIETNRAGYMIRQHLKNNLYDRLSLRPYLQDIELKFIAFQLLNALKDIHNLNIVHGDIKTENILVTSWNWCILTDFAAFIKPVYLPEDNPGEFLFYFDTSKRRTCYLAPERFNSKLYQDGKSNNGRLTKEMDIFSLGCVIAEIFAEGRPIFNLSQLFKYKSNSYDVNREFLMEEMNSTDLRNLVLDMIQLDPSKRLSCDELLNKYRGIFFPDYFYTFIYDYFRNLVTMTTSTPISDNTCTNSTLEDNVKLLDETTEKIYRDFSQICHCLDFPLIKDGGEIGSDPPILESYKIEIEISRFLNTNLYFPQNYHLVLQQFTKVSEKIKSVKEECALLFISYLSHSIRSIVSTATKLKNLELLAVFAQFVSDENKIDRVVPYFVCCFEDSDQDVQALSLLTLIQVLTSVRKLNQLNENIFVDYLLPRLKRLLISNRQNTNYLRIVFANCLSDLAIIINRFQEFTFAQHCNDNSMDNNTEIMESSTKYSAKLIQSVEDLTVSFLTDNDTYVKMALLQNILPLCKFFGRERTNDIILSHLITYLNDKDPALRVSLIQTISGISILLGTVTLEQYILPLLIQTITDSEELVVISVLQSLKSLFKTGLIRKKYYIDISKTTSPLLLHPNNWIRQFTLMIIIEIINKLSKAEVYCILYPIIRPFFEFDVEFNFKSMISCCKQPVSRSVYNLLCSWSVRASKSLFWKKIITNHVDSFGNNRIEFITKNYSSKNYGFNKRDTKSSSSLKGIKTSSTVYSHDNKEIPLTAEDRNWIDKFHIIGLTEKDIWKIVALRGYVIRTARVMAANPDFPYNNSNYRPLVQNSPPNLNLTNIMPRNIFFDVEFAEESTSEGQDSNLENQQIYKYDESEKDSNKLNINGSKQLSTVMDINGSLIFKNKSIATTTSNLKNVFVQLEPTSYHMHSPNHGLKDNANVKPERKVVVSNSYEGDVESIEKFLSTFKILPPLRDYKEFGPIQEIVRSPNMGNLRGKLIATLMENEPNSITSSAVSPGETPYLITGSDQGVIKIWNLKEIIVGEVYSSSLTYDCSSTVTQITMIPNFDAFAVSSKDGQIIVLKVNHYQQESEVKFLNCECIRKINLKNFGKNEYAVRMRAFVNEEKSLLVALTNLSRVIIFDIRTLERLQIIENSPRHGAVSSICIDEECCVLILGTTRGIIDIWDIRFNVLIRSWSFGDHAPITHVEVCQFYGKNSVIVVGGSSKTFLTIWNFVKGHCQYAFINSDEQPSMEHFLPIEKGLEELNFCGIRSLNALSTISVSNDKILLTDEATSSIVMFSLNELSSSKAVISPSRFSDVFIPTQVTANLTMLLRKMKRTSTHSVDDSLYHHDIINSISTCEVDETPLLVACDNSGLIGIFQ
Put plainly: negative-stain EM reconstruction; co-purified yeast Vps15-Vps34 D731N and Vps15 (WD40Δ)-Vps34 D731N dimers, 2% uranyl acetate; 28 Å. The following applies: both partners purified.

Series [2] concerns the target T2, Vps15 (WD40Δ) (1 to 981) (S. cerevisiae, UniProt P22219 1-981).
T2 construct: Vps15, yeast (S. cerevisiae), residues 1 to 981, without the WD40 domain; also called Vps15Δ WD40; ScVps15 (WD40Δ)
T2 sequence (looked up): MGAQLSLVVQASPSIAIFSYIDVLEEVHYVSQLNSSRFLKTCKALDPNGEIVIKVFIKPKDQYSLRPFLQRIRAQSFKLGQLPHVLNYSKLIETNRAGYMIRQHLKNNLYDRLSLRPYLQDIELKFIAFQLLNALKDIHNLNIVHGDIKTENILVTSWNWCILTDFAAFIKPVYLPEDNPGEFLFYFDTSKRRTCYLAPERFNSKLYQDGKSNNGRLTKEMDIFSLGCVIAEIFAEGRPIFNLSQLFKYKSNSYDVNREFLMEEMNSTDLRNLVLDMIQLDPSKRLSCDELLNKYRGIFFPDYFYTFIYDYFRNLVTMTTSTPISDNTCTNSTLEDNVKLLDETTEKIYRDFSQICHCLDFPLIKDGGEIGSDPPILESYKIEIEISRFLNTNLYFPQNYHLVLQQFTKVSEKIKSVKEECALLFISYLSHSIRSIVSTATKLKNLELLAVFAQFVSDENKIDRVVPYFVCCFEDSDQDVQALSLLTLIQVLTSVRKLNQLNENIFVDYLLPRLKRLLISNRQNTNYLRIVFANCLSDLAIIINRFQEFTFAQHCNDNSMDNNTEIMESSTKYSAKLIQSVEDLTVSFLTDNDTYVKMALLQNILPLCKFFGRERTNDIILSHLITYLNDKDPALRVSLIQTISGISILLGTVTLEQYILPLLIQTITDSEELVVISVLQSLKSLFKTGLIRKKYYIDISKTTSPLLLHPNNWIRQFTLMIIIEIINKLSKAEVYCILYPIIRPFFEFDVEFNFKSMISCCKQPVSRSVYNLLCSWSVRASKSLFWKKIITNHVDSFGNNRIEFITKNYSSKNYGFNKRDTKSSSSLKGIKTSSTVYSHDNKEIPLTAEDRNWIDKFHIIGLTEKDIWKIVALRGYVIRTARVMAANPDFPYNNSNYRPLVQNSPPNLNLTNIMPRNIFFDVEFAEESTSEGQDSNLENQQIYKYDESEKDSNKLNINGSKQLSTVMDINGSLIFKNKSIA
Described as above. The following applies: both partners purified.

In series [3] the target is T3, Atg14 (subunit of the purified yeast complex I) (S. cerevisiae, UniProt P38270 1-344).
T3 construct: Atg14, S. cerevisiae
T3 sequence (looked up): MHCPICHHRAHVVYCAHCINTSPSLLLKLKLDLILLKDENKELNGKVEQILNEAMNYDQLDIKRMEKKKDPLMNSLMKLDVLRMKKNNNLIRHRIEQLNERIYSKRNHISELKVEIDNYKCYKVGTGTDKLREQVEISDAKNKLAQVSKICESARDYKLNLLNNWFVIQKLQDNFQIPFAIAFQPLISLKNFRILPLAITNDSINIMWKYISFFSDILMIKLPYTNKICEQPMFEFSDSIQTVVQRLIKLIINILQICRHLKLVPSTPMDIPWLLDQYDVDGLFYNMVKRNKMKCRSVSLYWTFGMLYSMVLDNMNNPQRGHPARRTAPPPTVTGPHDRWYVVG
Put plainly: HDX-MS; complex I, free Atg38 and gel-filtered complex I + Atg38; 2.5 µM protein, 20 mM Tris pH 8.0, 50 mM NaCl, 2 mM TCEP, 75% D2O, 3 to 3000 sec at 23°C. The following applies: both partners purified.

Series [4] deals with T4, yeast complex I (Vps15-Vps34-Vps30-Atg14 heterotetramer) (S. cerevisiae, UniProt P22219 1-1454; P22543 1-875; Q02948 1-557; P38270 1-344).
T4 construct: Vps15, S. cerevisiae, subunit of complex I; Vps34, S. cerevisiae, subunit of complex I; Vps30/Atg6, S. cerevisiae, subunit of complex I; Atg14, S. cerevisiae, subunit of complex I; expected mass 379 kDa; also called CI; heterotetrameric S. cerevisiae complex I; copies: 1 + 1 + 1 + 1
Description: SEC; purified yeast complex I mixed with purified Atg38 at 6:1 or 1:6 molar ratio (8.6 µM complex I with 1.4 or 51.7 µM Atg38), on ice 30 min, S200 10/30; 20 mM Tris pH 8.8, 150 mM NaCl, 0.5 mM TCEP; fractions on SDS-PAGE. The following applies: both partners purified.

Series [5] deals with the molecule itself. Put plainly: SEC-MALS; Atg38 full-length, MIT domain and deletion variants alone on S75 10/30; 20 mM Tris pH 7.9, 300 mM NaCl, 1 mM TCEP. (SEC sorts molecules by how far they enter the pores of the column.)
For series [6], the target named is T4, yeast complex I …. Description: SEC-MALS; purified yeast complex I (co-expressed, co-purified) and gel-filtration purified complex I + Atg38 on S200 10/30; 20 mM Tris pH 8.8, 150 mM NaCl, 1 mM TCEP. The following applies: both partners purified.

2 molecules from PMC5103362 (Autophagy, 2016) can be followed below.

In general, stoichiometry N refers to the number of molecules, sites or subunits per partner or assembly.

T4 sequence (Q02948 whole entry, one chain of several): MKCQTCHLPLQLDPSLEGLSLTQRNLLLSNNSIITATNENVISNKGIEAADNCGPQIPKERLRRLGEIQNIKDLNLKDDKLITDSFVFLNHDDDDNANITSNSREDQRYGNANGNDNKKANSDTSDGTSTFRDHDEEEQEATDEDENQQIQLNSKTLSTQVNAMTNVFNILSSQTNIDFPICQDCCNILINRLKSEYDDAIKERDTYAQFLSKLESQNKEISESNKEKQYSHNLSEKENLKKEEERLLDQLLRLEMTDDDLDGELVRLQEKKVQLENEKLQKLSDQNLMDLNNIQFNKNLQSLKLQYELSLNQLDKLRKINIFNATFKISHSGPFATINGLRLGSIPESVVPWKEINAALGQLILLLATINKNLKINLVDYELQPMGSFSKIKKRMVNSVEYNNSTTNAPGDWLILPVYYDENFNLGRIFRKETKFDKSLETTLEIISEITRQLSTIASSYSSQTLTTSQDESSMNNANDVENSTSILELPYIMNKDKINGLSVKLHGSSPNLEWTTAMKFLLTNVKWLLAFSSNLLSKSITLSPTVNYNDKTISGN

B1: Vps34 D731N (KI) (enzyme, S. cerevisiae, UniProt P22543 1-875, looked up)
chain: MSLNNITFCVSQDLDVPLKVKIKSLEGHKPLLKPSQKILNPELMLIGSNVFPSSDLIVSLQVFDKERNRNLTLPIYTPYIPFRNSRTWDYWLTLPIRIKQLTFSSHLRIILWEYNGSKQIPFFNLETSIFNLKDCTLKRGFESLKFRYDVIDHCEVVTDNKDQENLNKYFQGEFTRLPWLDEITISKLRKQRENRTWPQGTFVLNLEFPMLELPVVFIEREIMNTQMNIPTLKNNPGLSTDLREPNRNDPQIKISLGDKYHSTLKFYDPDQPNNDPIEEKYRRLERASKNANLDKQVKPDIKKRDYLNKIINYPPGTKLTAHEKGSIWKYRYYLMNNKKALTKLLQSTNLREESERVEVLELMDSWAEIDIDDALELLGSTFKNLSVRSYAVNRLKKASDKELELYLLQLVEAVCFENLSTFSDKSNSEFTIVDAVSSQKLSGDSMLLSTSHANQKLLKSISSESETSGTESLPIVISPLAEFLIRRALVNPRLGSFFYWYLKSESEDKPYLDQILSSFWSRLDKKSRNILNDQVRLINVLRECCETIKRLKDTTAKKMELLVHLLETKVRPLVKVRPIALPLDPDVLICDVCPETSKVFKSSLSPLKITFKTTLNQPYHLMFKVGDDLRQDQLVVQIISLMNELLKNENVDLKLTPYKILATGPQEGAIEFIPNDTLASILSKYHGILGYLKLHYPDENATLGVQGWVLDNFVKSCAGYCVITYILGVGNRHLDNLLVTPDGHFFHADFGYILGQDPKPFPPLMKLPPQIIEAFGGAESSNYDKFRSYCFVAYSILRRNAGLILNLFELMKTSNIPDIRIDPNGAILRVRERFNLNMSEEDATVHFQNLINDSVNALLPIVIDHLHNLAQYWRT
Turning to B1, the binding result in series [1] and in series [2] was “binds” throughout.

B2: Atg38, full-length (natural protein, S. cerevisiae, UniProt Q05789 1-226, looked up)
chain: MSTLAEVYTIIEDAEQECRKGDFTNAKAKYQEAIEVLGPQNENLSQNKLSSDVTQAIDLLKQDITAKIQELELLIEKQSSEENNIGMVNNNMLIGSVILNNKSPINGISNARNWDNPAYQDTLSPINDPLLMSILNRLQFNLNNDIQLKTEGGKNSKNSEMKINLRLEQFKKELVLYEQKKFKEYGMKIDEITKENKKLANEIGRLRERWDSLVESAKQRRDKQKN
notes: also called purified Atg38; free Atg38; source: E. coli, purified (Glutathione Sepharose, TEV, HiTrap Q, S75); not shown: GST, N-terminal, cleaved
Turning to B2, the binding result in series [3] is recorded as “binds”. In addition, the results for the “stoichiometry N” value in series [4], in series [5] and in series [6] were 2 Atg38 chains per complex I, 2 and 1 Atg38 homodimer per complex I, respectively.
